This passage reports percent of Cup pulled down results from publication PMC3229553.

The assay addresses Orb (Drosophila (endogenous in ovaries)). Kind of assay: co-IP; wild type ovary extract precipitated with Orb antibody coupled to protein A/G beads, room temperature 2 hours; Co-IP buffer 20 mM Hepes pH 7.5, 150 mM NaCl, 2.5 mM MgCl2, 250 mM sucrose, 0.05% NP40, 0.5% Triton-X, with RNase A; Western blot for Cup; HA antibody as negative control. For orientation: In western blotting, separated proteins are transferred to a membrane and probed.

B1: Cup (natural protein)
chain: MQMAEAEQENGAGALKIATNAGATDRPAHQQLPLPVEDQQDEVLTPAEKGKFEYPPPPPPPTPVQAPLATKATALNASQEHDDDEANSEKWEDPCAPPPPPPLPTSAFLATGLGYLKLPAFKLKDALEKAITKLEANKRTLKASPESSRSIKNKNVVALEMLPRRSNPETIGDGSMLASTSTAVMLQTKKPAVIVEMERRCKIINLLAKQNQILESISGEAIPMHGPSKHLHEDEGLTLQVLSARASTPYTQPSSMLSCTAVSCDLEHDSPRKQVASKEAVPEQQSSQVQQKRPPSTGIHKPGSLRAPKAVRPTTAPVVSSKPVKSYTRSRLMDIRNGMFNALMHRSKESFVMPRIATCDDIELEGRLRRMNIWRTSDGTRFRTRSTTANLNMNNNNNNECMPAFFKNKNKPNLISDESIIQSQPPQPQTEFQDPAIVNQRRIGSGRLNHSKWGYNDEDYHSYHNGKSQHMEEVNSKNSKNMTVLQFFDNGEISSQPQRRPNTPVMGMSINRSENDTLHSNESSEDLSRANENYVKRVMSGFLVVSKPKSRDVEDRHHRRYRNQNEEPEWFSCGPTSRLDTIELCGFDEDEEKMLKEGNKNHGLGETERETSKQKMDHKYKWTHAEPMGRSKYMPKHDTNNNHNVENMNNVMATEHQQQKEEKRPGSGRSFQFDKFNQSQQNYESSSYVNHQQPPQTQPQQMQQQSNTNTNNSKFMSFFANEGNSSSSSLNEFFKQAINQGHGNNPEQPKSLGHIGQMPSVDQLEAKWRRNSLNNVGETANKQTDNFQKLIGSLSSAKPQSQAVGYDAISNFIMQQQQYQQQQQKQHLIIQQQQQHTAFLASLQLKAILGRADTQLLLLRLTKGEISKHGLLVQLANPRLTDMDREAITAVLQFTNTQQQQQQHKQQLDMLSSTVIASQLQNLHNLAIVQQTLAARQQPQHNPQTQAPHQLSQEDLQAHANVIMRNAVMKRKIEEQTSKLINGGAKHQAQQQYLNRGQQRQARPDANSNALLHALISGGGNNHASGYPMNGQPQKHHSNLRFGDNQNFQSFESNQPHFATQYKQQYQQSQQQHPHQQPQQLNSLHQNNAGAVNSFNKAQMQAQSAISMLPNSGDEFH
In turn, B1 yielded a percent of Cup pulled down of 10%.
